In the nanobody polyreactivity screen of Harvey et al. (2022):

Assay: yeast display, Sf9 membrane polyspecificity reagent, FACS + sequencing; frameworks hold sequencing errors
Outline: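 Galactose induction of a Saccharomyces cerevisiae BJ5465 synthetic nanobody display library ran 36–48 hours. The cells were then stained for 1 hour at 4 °C with 10% biotinylated, detergent-solubilized Sf9 membrane reagent, pulled down on streptavidin microbeads and FACS-sorted into low and high (top ~1%) gates on expression and reagent-binding fluorescence. Labels for polyreactivity follow the gate of origin.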

Sequence | polyreactivity (PSR sort gate)
QVQLVESGGGLVQAGGSLRLSCAASGSTFKIYAMGWYRQAPGKERELVARITGRGGSTYYADSVKGRFTISRDNAKNTVYLQMNSLKPEDTAVYYCAREWYQYSPYHRFDYWGQGTQVTVSS | high polyreactivity
QVQLVESGGGLVQAGGSLRLSCAASGSTFVRNAMGWYRQAPGKERELVAAITSSGGSTYYADSVKGRFTISRDNAKNTVYLQMNSLKPEDTAVYYCAKRRYYRYDYWGQGTQVTVSS | low polyreactivity
QVKLVESGGGLVQAGGSLRLSFAASGSIFFIYAMGWYRQETGKERELVASINSGGTTSNADSVKGRFTISRDNAKNTVYLQLNSLKPADTAVYYCATRGIVGILDSLSEEYYYWGQGTQVSVSS | low polyreactivity
QVQLVESGGGLVQAGGSLRLSCAASGITFFDNAMGWYRQAPGKERELVATITGGGASTYYADSVKGRFTISRDNAKNTVYLLMNSLKPEDTAVYYCAADYVDGVYLEYGYWGQGTQVTVSS | low polyreactivity
QVQLVESGGGLVQAGGSLRLSCAASGRIFWVYAMGWYRQAPGKERELVAAISTRGGSTYYADSVKGRFTISRDNAKNRVYLQKNRLKPDDTAVYYCAADYDDKYDYWGQGTQVTVSS | low polyreactivity
QVQLVESGGGLVQAGGRLRLSCDASGITFISNTMGWSRQAPGKERELVAAISWTGGSTYYADSVKGRFTISRDNAKNTVYLQMNSQKPEDTAVYYCNAVRYYVYSTQYDYWGEGTQVTVSS | high polyreactivity
QVQLVESVGGLVQAGGSLRLSCAASGFTFVYNAMGWYRQAPGKEREMVAAISSRGGSTFYADSVKGRFTISRDNAKNTVYLQMNSLKPEDTAVYYCNAVPGWTYDYWGQGTQVTVSS | high polyreactivity
QVQLVESGGGLVKAGGSLRLTCAASGRTFGDNAMVWYRQATGKEMELVAAIRWGGGSTYYADSVKGRFTISRDNAKNTVFLQMNRLKPEDTAVYYCAKDDWDIALVHGEYDYWGQGTQVTVSS | low polyreactivity
QVQLVESGRGLVQAGGSLRLSCAASGFIFRDYAMGLYRQAPGKVRELVAAISSRGGGTSYADSVKGRFTITRDNAKNTVYLQMNSLKPEDTAVYYCNKGYGRYVVTAYDYWGQGTQVTVSS | high polyreactivity
QVQLVESGGGLVQAGGSLRLSCAASGSIFKGYAMGWSRQAPGKERELVASITSSGGSTYYADSVKGRFTISRDNAKNTVYLQMNCLKPEDTAVYYCATDHDSVRVLVSSTSDYDYWGQGTQVTVSS | low polyreactivity
QVQLVESGGGLVQAGGSLRLSCAASGSIYTHYAMGWYRQAPRKQRELVAAISRRGGSTYYADSVKGRFTISRDNAKNTVYLPMHSLKPEDTAVYYCAKSPDTAKEYDYWGQGTQVTVSS | high polyreactivity
QVQLVESGGGLVQAGGSLRLSCAASGRTFPGNAMGWYRQATGKERELVATISSGGTTNYADSVKGRFTISRDNAKNTVYLQMNSLKPEDTAVYYCATDTYHHKADYEYWGQGTQVTVSS | low polyreactivity
QVQLVESGGGLVQAGGSLRLSCAASGLNLAQYVMGWYRQAPGKERELVAAITWRGGGTYYADSVKGRFTISRDNAKYTVYLQMNSLKPEDTAVYYCNAVLYDGYVYNPGSTDDVDYWGQGTLVTVSS | high polyreactivity
QVQLVESGGGLVQAGGSLRLSCAASGRIFERYAMGWYRQAPGKERELVAGISISGGGTYYADSVKGRFTISRDNAKNTVYLEMNSLKPEDTAVYYCAATFPREDYGYWGQGTQVTVSS | low polyreactivity
QVQLEESGGGLVHAGGSLRLSCAASGSTFRPYAMGWYRQAPGKERELVAAIRKIGGRTYYADSVKGRFTISRDNAKNTVYLQMNSLKPEDTAVYYCNKRIGGGVHAYNYWGQGTQVTVSS | low polyreactivity
QVQLVESGGGLVQAGGSLRLSCAASGSTFLTNAMGWYRQAPGKERELVAAIRWRGGDTRYADSVKGRFTISRDNAKNTVYLQMNSLKPEDTAVYYCAAQYRKTQYQKKYDYWGQGTQVTVSS | high polyreactivity
QVQLVESGGGLVQAGGSLSLSCAASGGIFARNVMGWYRQAPGKERELVADISGSGGSTYYADSVKGRFTISRDNAKNTVYLQMNSLKPEDTAVYYCAARTPGVSVYKDGYWGQGTQVTVSS | low polyreactivity
QVQLVESGGGLVQAGGSLRLSCAASGRIFRGYAMGWYRQAPGKERELVAAISQSGSSTYYADSVKGRFTISRDNAKNTVYLQMNSLKPEDTAVYYCAVKYLKHFGYWGQGTQVTVSS | high polyreactivity
QVQLVESGGGLVQAGGSLRLRCAASGSTFAYYAMGWYRQAPGKERELVAAISSGGSTYYADSVKGRFTISRDNAKNTVYIQMNSLKAEETAVYYCNKLRVVKFKRYEFGEWGQGTQVTVSS | low polyreactivity
QVQLQESGGGLVQAGGSLRLSCSATGTIFTDRFMGWYRQAPGKERELVAGISPGTSTNYADSVKGRFTISRDNAKNTVYLQMNSLKPEDTAVYYCAADWSTGNTLPYWGQGTQVTVSS | high polyreactivity
QVQLVESGGGLVQAGGSLRLSCAASGRIFSYYAMGWYRQAPGKERELVAAISTSGGNTYYADSVKGRFTISRDNAKNTVYLQMNSLLTEDTAVYYCAAAYFSSGYKYYYWGQGTQVSVSS | high polyreactivity
QVQLVESGGGLVQAGGSLRLSCAASGRTSGNNAMGWYRQAPGKERELVAAITRGGRTYYADSVKGRFTISRDNAKNTVYLQLNSLKPEDTAVYYCAARRYFYLFGYYYWGQGTQVTVSS | high polyreactivity

Sequence | polyreactivity (PSR sort gate)
QVQLVESGGGLVQAGGSLRLSCAASGSTFDSYAMGWYRQDPGKERELFAAITYSGGRTYYADSVKGRFTISRDNAKNTVYLQMNSLKPEDTAVYYCAATGVFRDEYWGQGTQVTVSS | low polyreactivity
QVQLVESGGGLVQAGGSLRLSCDASGSIFRGNAMGCYRQAPGKERELVPDITSGSNTYYADSVKGRFTISRDNAKNTVYLQMNSLKPEDTAVYYCAADGVAYPWWSVYNSFDYWGQGTQVTVSS | low polyreactivity
QVQLVESGGGLVQAGGSLRLSCAASGSTLRYYAMGWYRQAPGKETEFVAAITASGVTTYYADSVKGRFTISRDNAKNTVYLQMNSLKPEDTAVYYCAARLYYNYRDRYNYWGQGTQVTVSS | high polyreactivity
QVQLVESGGGLVQEGGSLRLSCAASGFTFGSYAMGWYRQAPGTERELLAAITTDGSTYYADSVKGRFTISRDNAKNTVYLHMNSLKREDTAVYYCAAGYSYDRYGSDMDYWGQGTQVTVSS | low polyreactivity
QVQLVESGGGLVQAGGSLRLSCAASGSILGLNVMGWYRQAPGTEREVVAAISRRGGSTYYADSVKGRFTISRDNAKNTVYLQMNSLKPEDTAVYYCAATRTARTMGYWGQGTQVTVSS | high polyreactivity
QVQLVESGGGLVQAGGSLRLSCAASGSIFEYYAMGWYRQAPGKERELVASITSSGTTYYADSVKGRFTISRDNAKNTVYLQMNSLKPEDTAVYYCAAYFAYLDSYVTYEYDYWGQGTQVTVSS | low polyreactivity
QVQLVESGGGLVQAGGSLRLSCAASGYTFYANAMGWYRQAPGTEREFVASITWSGGSTYYADSVKGRFTISRDNAKNTVYLQMNSLKPEDTAVYYCAAESWFKYDYWGQGTQVTVSS | low polyreactivity
QVQLVESGGGLVQAGGSLRLSCAASGRIFSGNAMGWYRQAPGKERELVARISRSGSNTYYADSVKGRFTISRDNAKNTVYLQMKSLKPEDTAVYYCAAKSTYWPYDRTYNSWGQVTQVTVSS | high polyreactivity
QVQLVESGGGLVQAGGSLRLRCAASGSIFNFYAMGGYRQAPGKERELVATINWSGGRTYYADSVKGRFTISRDNATNTVYLQMNSLNTEDTAVYYCAASRYFRGDYWGQGTQGTVSS | high polyreactivity
QVQLVESGGGLVQAGGSLRLSCAASGIIFSIYAMGWYRQAPGKERELVAAISGRGGRTYYADSVKGRFTISRDNAKNTVYLQMNSLKPVDTAVYYCIAEYLDLYDYWGQGTQVTVSS | low polyreactivity
QVQLVESGGGLVQAGGSLRLSCAASGFTFTTYVMGWYRQAPGKERELVAAISRRGTSTRYADSVKGRFTISRDNAKITVYLQMNSLKTEDTAVYFCAADRPYSIVPYDYWGQGTQVTVSS | high polyreactivity
QVQLVESGGGLVQAGGSLRLSCACSGSTFRWYTMGWYRQAPGKECELVAAISISGTSTYYADSVNGRFTISRDNAKNTVYLQMNSLTPEDTAVYYCAADPPSRWGDYWGQGTQVTVSS | high polyreactivity
QVQLVESGGGLVQAGGSLRLSCAASGRIYYQYAMGWYRQAPGKERELVAAITRGGNTYYADSVKGRFTISRDNAKNTVYLQMNSLKPEDTAVYYCNARWHTTGYRYDYWGQGTQVTVSS | high polyreactivity
QVQLVESGGGLVQAGGSLRLSCAASGSTFSTNAMGWYSPAPGKERELVAASTVSGGRTYYADSVKGRFTISRDNAKNTVYLQMNSLKPEDTAVYYCATDTSRLSIFGYVSFYYWGQGTQVNVSS | low polyreactivity
QVQLVESGGGLVQAGGSLRLSCAASGSTFHRNAMGWSRQAPGKERELVAAISFSGGRTYYADSVKGRFTISRDNAKNTVNLQMNSLKPEDTAVYYCAAVTASPGSYPDDYWGQGTQVTVSS | low polyreactivity
QDQLVESGGGLVQAGGSLRLSCAASGSTFTPNALGWYRQPPGKQRELVAAISTRGSSTYYADSVKGRFTISRDNAKNTVYLQMNRLKPEDTAVYSCAAPFKYGLSYGSWYGYCGQGTQVTVSS | high polyreactivity
QVQLVESGGGLVQAGGSLRLSCAASGSTFWPYAMGWYRQAPGKERELVAAITSSGGSTYYADSVKGRFTISRDNAKNTVYLQRNSLKPEDTAVYYCAADWSNLGAYDYWGQGTQVTVSS | low polyreactivity
QVQLQDSGGGLVQAVGSQRMSCAASGYIFYFQYMGWYRQAPGKEREFVAAISDGANTNYADSVKGRFTISRDNAKNTEYLQMYCLKPEDTAVYYCAVYADENYYYIYWGQGTQVTVSS | low polyreactivity
QVQLVESGGGLVQAGGSLRLSCAASGFTFGYYAMGWYRQAPRKERELVAAISSSSGRTHYADSVKGRFTISRDNAKNTVYLQMNSLKPEDTAVYYCAAEFYYLYYYWGQGTQVTVSS | high polyreactivity
HVQLVESGGGLVQAGGSLRLSCAASGRSFRYNAMGWYRQAPGKERELVAAITRSGGSTDYADSVKGRFTISRDNAKNTVNLQMNSLKPEDTAVYYCAKLQNGQWSTSRVPGDYQYNYWGQGTQVTVSS | high polyreactivity
QVQLVESGGGLVQAGGSLRLSCAASGSIFWTNVMGWYRQAPGKERELVAAISYSDGSTYYADSVKGRFTISRDNAKNTVYLQMNSLKPEDTAVYYCAADQYYYWGGYDYWGQGTQVTVSS | low polyreactivity
